What was measured:
Test in all cases: holdup assay
Design in all cases: key: below the threshold = too weak to quantify, mostly under pKd 3.1 to 4
GRIP2_6, Q9C0E4 = target: GRIP2_6, Q9C0E4
FRMPD2_3, Q68DX3 = target: FRMPD2_3, Q68DX3
CARD11, Q9BXL7 = target: T1, CARD11, Q9BXL7
T1 sequence (Q9BXL7 662-765, limits assumed, looked up): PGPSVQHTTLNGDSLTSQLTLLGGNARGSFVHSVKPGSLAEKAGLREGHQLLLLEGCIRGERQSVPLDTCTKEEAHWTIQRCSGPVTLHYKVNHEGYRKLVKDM

MPDZ_5, O75970 = target: T2, MPDZ_5, O75970
T2 sequence (O75970 695-796, limits assumed, looked up): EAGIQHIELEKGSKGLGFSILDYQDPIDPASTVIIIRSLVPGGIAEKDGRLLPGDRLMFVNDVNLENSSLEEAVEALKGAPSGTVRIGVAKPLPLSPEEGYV

DLG3_3, Q92796 = target: T3, DLG3_3, Q92796
T3 sequence (Q92796 374-475, limits assumed, looked up): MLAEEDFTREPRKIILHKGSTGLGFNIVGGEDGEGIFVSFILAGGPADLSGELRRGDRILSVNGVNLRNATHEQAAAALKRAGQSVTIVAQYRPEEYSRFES

SYNJ2BP, P57105 = target: T4, SYNJ2BP, P57105
T4 sequence (P57105 8-110, limits assumed, looked up): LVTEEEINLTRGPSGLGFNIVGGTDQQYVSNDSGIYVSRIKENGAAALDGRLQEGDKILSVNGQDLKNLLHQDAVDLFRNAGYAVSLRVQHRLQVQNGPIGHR

Inadl_6, Q8NI35 = target: Inadl_6, Q8NI35
Sequence of Inadl_6, Q8NI35 (Q8NI35 1058-1167): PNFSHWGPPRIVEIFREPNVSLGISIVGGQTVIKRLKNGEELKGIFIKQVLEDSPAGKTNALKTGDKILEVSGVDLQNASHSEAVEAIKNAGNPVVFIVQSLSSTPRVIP

DLG3_2, Q92796 = target: T5, DLG3_2, Q92796
T5 sequence (Q92796 221-321, limits assumed, looked up): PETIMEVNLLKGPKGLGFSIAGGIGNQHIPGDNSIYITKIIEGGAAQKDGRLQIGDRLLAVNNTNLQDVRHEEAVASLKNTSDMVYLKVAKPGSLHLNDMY

SNX27, Q96L92 = target: SNX27, Q96L92
GRIP1_3, Q9Y3R0 = target: T6, GRIP1_3, Q9Y3R0
T6 sequence (Q9Y3R0 247-346, limits assumed, looked up): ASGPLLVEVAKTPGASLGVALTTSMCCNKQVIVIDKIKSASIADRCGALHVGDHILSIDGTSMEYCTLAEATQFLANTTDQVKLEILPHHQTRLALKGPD

MAGI2_2, Q86UL8 = target: MAGI2_2, Q86UL8
Sequence of MAGI2_2, Q86UL8 (Q86UL8 410-522): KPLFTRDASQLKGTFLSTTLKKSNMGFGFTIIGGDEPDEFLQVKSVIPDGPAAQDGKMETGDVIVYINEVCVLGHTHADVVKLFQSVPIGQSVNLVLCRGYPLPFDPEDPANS

LRRC7, Q96NW7 = target: T7, LRRC7, Q96NW7
T7 sequence (Q96NW7 1440-1537, limits assumed, looked up): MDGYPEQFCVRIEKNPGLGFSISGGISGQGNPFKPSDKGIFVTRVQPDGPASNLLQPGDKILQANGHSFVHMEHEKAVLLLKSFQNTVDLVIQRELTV

HTRA1, Q92743 = target: HTRA1, Q92743
Sequence of HTRA1, Q92743 (Q92743 360-477): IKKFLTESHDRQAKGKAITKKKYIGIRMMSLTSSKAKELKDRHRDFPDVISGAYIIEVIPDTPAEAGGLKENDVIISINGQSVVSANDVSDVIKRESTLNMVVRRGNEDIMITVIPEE

ARHGEF12, Q9NZN5-2 = target: ARHGEF12, Q9NZN5-2
Sequence of ARHGEF12, Q9NZN5-2 (Q9NZN5 other isoform, or with tags, fused parts or gaps): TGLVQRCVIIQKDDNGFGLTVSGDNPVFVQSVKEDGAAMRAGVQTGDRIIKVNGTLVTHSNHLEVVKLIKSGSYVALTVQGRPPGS

RADIL, Q96JH8 = target: T8, RADIL, Q96JH8
T8 sequence (Q96JH8 971-1071, limits assumed, looked up): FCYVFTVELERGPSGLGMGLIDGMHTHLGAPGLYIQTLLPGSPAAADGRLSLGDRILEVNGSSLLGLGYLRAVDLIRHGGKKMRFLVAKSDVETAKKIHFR

RHPN1, Q8TCX5 = target: T9, RHPN1, Q8TCX5
T9 sequence (Q8TCX5 508-602, limits assumed, looked up): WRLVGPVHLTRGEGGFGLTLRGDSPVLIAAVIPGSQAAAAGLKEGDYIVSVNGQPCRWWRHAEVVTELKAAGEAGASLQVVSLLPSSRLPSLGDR

TJP1_3, Q07157 = target: TJP1_3, Q07157
Sequence of TJP1_3, Q07157 (Q07157 416-512): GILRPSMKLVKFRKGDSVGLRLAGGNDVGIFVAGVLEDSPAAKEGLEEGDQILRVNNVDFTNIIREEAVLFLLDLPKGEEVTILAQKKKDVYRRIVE

Inadl_1, Q8NI35 = target: Inadl_1, Q8NI35
Sequence of Inadl_1, Q8NI35 (Q8NI35 113-229): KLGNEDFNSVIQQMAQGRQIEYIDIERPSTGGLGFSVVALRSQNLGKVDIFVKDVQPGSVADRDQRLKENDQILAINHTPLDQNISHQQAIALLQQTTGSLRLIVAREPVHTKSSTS

SIPA1L2, Q9P2F8 = target: T10, SIPA1L2, Q9P2F8
T10 sequence (Q9P2F8 945-1036, limits assumed, looked up): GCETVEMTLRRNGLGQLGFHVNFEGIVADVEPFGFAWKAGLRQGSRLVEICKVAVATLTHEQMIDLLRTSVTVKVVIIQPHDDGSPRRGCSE

ARHGEF11, O15085 = target: T11, ARHGEF11, O15085
T11 sequence (O15085 42-136, limits assumed, looked up): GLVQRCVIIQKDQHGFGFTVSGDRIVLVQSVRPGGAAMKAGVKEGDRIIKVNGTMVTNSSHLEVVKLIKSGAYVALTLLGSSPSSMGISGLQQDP

MPP7, Q5T2T1 = target: T12, MPP7, Q5T2T1
T12 sequence (Q5T2T1 134-230, limits assumed, looked up): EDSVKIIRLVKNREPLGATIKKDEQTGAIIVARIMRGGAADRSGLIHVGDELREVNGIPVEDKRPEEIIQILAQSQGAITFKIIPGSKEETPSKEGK

DFNB31_1, Q9P202 = target: T13, DFNB31_1, Q9P202
T13 sequence (Q9P202 135-233, limits assumed, looked up): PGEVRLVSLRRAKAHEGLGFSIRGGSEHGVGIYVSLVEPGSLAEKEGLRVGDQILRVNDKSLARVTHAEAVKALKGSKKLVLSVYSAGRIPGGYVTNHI

GRIP2_5, Q9C0E4 = target: GRIP2_5, Q9C0E4
Sequence of GRIP2_5, Q9C0E4 (Q9C0E4 544-642): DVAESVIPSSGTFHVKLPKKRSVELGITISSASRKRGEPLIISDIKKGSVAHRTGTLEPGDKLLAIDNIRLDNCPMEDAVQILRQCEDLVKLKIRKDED

NHERF4_2, Q86UT5 = target: NHERF4_2, Q86UT5
Sequence of NHERF4_2, Q86UT5 (Q86UT5 220-308): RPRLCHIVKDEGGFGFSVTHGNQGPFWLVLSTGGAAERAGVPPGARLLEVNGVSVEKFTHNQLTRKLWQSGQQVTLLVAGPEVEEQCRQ

[1] = plain residues with an end cap or a label only (N-terminal biotin on a linker: ado-ado)
[2] = plain residues with an end cap or a label only (N-terminal biotin on a linker: (peg)3)

Sequence of FRMPD2_3, Q68DX3 (Q68DX3 1073-1166): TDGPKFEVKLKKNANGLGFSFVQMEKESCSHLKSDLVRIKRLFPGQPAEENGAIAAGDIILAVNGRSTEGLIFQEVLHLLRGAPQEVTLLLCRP
Sequence of GRIP2_6, Q9C0E4 (Q9C0E4 648-740): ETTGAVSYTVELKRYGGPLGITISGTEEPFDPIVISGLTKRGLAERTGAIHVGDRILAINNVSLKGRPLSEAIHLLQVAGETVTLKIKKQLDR

NTANRRTTPV [CACNG2, Q9Y698]
pKd (GRIP2_6, Q9C0E4; [1]): below the threshold
pKd (FRMPD2_3, Q68DX3; [1]): below the threshold
pKd (CARD11, Q9BXL7; [1]): below the threshold
pKd (MPDZ_5, O75970; [1]): below the threshold
pKd (DLG3_3, Q92796; [1]): 4.69
pKd (SYNJ2BP, P57105; [1]): 5.08
pKd (Inadl_6, Q8NI35; [1]): below the threshold
pKd (DLG3_2, Q92796; [1]): 4.44
pKd (SNX27, Q96L92; [1]): 4.99
pKd (GRIP1_3, Q9Y3R0; [1]): below the threshold
pKd (MAGI2_2, Q86UL8; [1]): 4.98
pKd (LRRC7, Q96NW7; [1]): below the threshold
pKd (HTRA1, Q92743; [1]): below the threshold
pKd (ARHGEF12, Q9NZN5-2; [1]): 3.93
pKd (RADIL, Q96JH8; [1]): below the threshold
pKd (RHPN1, Q8TCX5; [1]): below the threshold
pKd (TJP1_3, Q07157; [1]): below the threshold
pKd (Inadl_1, Q8NI35; [1]): below the threshold
pKd (SIPA1L2, Q9P2F8; [1]): below the threshold
pKd (ARHGEF11, O15085; [1]): 3.83
pKd (MPP7, Q5T2T1; [1]): below the threshold
pKd (DFNB31_1, Q9P202; [1]): 3.76
pKd (GRIP2_5, Q9C0E4; [1]): below the threshold
pKd (NHERF4_2, Q86UT5; [1]): below the threshold

SFISKKEWYV [NECTIN1, Q15223]
pKd (GRIP2_6, Q9C0E4; [1]): 4.3
pKd (FRMPD2_3, Q68DX3; [1]): 4.31
pKd (CARD11, Q9BXL7; [1]): below the threshold
pKd (MPDZ_5, O75970; [1]): 4.61
pKd (DLG3_3, Q92796; [1]): below the threshold
pKd (SYNJ2BP, P57105; [1]): below the threshold
pKd (Inadl_6, Q8NI35; [1]): below the threshold
pKd (DLG3_2, Q92796; [1]): 4.11
pKd (SNX27, Q96L92; [1]): below the threshold
pKd (GRIP1_3, Q9Y3R0; [1]): below the threshold
pKd (MAGI2_2, Q86UL8; [1]): 4.96
pKd (LRRC7, Q96NW7; [1]): below the threshold
pKd (HTRA1, Q92743; [1]): 5.24
pKd (ARHGEF12, Q9NZN5-2; [1]): below the threshold
pKd (RADIL, Q96JH8; [1]): 4.94
pKd (RHPN1, Q8TCX5; [1]): below the threshold
pKd (TJP1_3, Q07157; [1]): below the threshold
pKd (Inadl_1, Q8NI35; [1]): 3.91
pKd (SIPA1L2, Q9P2F8; [1]): below the threshold
pKd (ARHGEF11, O15085; [1]): 4.41
pKd (MPP7, Q5T2T1; [1]): 5.11
pKd (DFNB31_1, Q9P202; [1]): below the threshold
pKd (GRIP2_5, Q9C0E4; [1]): below the threshold
pKd (NHERF4_2, Q86UT5; [1]): below the threshold

RRRRSQSRESQC [HBV-HBc, P03193]
pKd (GRIP2_6, Q9C0E4; [2]): below the threshold
pKd (FRMPD2_3, Q68DX3; [2]): below the threshold
pKd (CARD11, Q9BXL7; [2]): below the threshold
pKd (MPDZ_5, O75970; [2]): below the threshold
pKd (DLG3_3, Q92796; [2]): 3.69
pKd (SYNJ2BP, P57105; [2]): 4.59
pKd (Inadl_6, Q8NI35; [2]): below the threshold
pKd (DLG3_2, Q92796; [2]): 4.56
pKd (SNX27, Q96L92; [2]): 4.76
pKd (GRIP1_3, Q9Y3R0; [2]): below the threshold
pKd (MAGI2_2, Q86UL8; [2]): 4.4
pKd (LRRC7, Q96NW7; [2]): below the threshold
pKd (HTRA1, Q92743; [2]): below the threshold
pKd (ARHGEF12, Q9NZN5-2; [2]): below the threshold
pKd (RADIL, Q96JH8; [2]): below the threshold
pKd (RHPN1, Q8TCX5; [2]): below the threshold
pKd (TJP1_3, Q07157; [2]): below the threshold
pKd (Inadl_1, Q8NI35; [2]): below the threshold
pKd (SIPA1L2, Q9P2F8; [2]): below the threshold
pKd (ARHGEF11, O15085; [2]): below the threshold
pKd (MPP7, Q5T2T1; [2]): below the threshold
pKd (DFNB31_1, Q9P202; [2]): 3.92
pKd (GRIP2_5, Q9C0E4; [2]): below the threshold
pKd (NHERF4_2, Q86UT5; [2]): below the threshold

Reference: article PMC9482650, “Quantitative fragmentomics allow affinity mapping of interactomes” (Nature Communications, 2022)
